Consider 5 molecules from patent US20240376207A1 (JIANGSU HENGRUI PHARMACEUTICALS, published 2024).

Assay [1] addresses T1, human IgG1 Fc-tagged mouse PVRIG (m-PVRIG-hIgG1 Fc) (mouse, UniProt A0A1B0GS01 35-165).
T1 construct: bought from Acrobiosystems; also called Mouse PVRIG-Fc; mouse PVRIG recombinant protein; not shown: human IgG1 Fc tag of the Acrobiosystems product, and any linker to it
T1 sequence: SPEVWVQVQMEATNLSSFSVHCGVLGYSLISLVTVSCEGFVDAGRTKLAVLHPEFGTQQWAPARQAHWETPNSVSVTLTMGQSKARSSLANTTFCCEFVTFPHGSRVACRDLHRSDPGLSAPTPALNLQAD
Kind of assay: ELISA, coated antigen. How it is done: (§1) ELISA assay was used to detect binding properties of anti-PVRIG antibodies. […] After the antibody was added, the activity of the binding of the antibody to the antigen was detected by adding a secondary antibody (HRP-conjugated anti-primary antibody Fc antibody) and HRP substrate TMIB.
(§2) A human, cynomolgus monkey, or mouse PVRIG protein (at a concentration of 1 μg/mL) was coated on a 96-well microplate at 100 μL per well, and incubated overnight at 4° C. The plate was washed three times with wash buffer at 250 μL per well. For each wash, the plate was shaken for 10 s to ensure adequate cleaning. A blocking solution (PBS+0.05% Tween20+1% BSA) was added at 300 μL/well, and the plate was incubated at room temperature for 1 h. The plate was washed three times with wash buffer at 250 μL per well. For each wash, the plate was shaken for 10 s to ensure adequate cleaning. Dilutions of the test anti-PVRIG antibodies were added at 100 μL/well. The plate was incubated at 37° C. for 1 h. The plate was washed three times with wash buffer at 250 μL per well. The […] anti-human IgG secondary antibody (Sigma, A8667) was added at 100 μL per well. The plate was incubated at 37° C. for 1 h. The plate was washed three times with wash buffer at 250 μL per well. TMB was added at 100 μL/well, and the plate was incubated in the dark for 15 min. 0.16 M sulfuric acid was added at 50 μL/well. The OD values at 450 nm were read by using a Thermo MultiSkanFc microplate reader, and the EC₅₀ values of the binding of the anti-PVRIG antibodies to PVRIG were calculated.
For orientation: In an ELISA, binding on a coated surface is turned into a signal by an enzyme label.

The target in assay [2] is T2, his-tagged cynomolgus monkey PVRIG (cyno-PVRIG-his) recombinant protein (cynomolgus monkey).
T2 construct: expressed in HEK293, purified by Ni-NTA; also called Monkey PVRIG-his; cynomolgus monkey PVRIG recombinant protein
T2 chain: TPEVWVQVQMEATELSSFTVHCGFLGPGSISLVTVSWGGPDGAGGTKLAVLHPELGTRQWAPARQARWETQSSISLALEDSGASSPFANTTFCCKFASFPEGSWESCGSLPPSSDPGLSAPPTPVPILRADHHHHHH
Kind of assay: ELISA, coated antigen. How it is done:
as §1, §2

The target in assay [3] is T3, human PVRIG expressed on cells (human, UniProt Q6DKI7 41-326).
T3 sequence (looked up): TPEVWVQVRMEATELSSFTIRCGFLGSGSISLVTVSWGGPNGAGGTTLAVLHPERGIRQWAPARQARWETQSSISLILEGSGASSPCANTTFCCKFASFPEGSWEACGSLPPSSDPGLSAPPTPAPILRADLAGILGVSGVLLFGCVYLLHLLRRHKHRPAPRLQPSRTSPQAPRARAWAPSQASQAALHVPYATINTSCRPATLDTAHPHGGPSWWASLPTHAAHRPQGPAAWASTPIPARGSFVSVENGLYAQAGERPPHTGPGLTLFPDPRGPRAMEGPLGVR
As to the kind of experiment: cell-based or functional assay.

For assay [4], the target named is T3, human PVRIG expressed on cells. As to the kind of experiment: cell-based or functional assay. This is another data set of the same source.
For assay [5] the target is unchanged. Kind of assay: FACS, HEK293 cells overexpressing target. How it is done: (§3) The expression plasmid carrying human or cynomolgus monkey PVRIG gene sequence was transfected into HEK293 cells, and the over-expressing stable transfection monoclonal cell strain was obtained by antibiotic screening and infinite dilution. Overexpressing cells were seeded into a 96-well plate at 2×10⁵ cells/per well. The cells were centrifuged at 300 g for 5 min, the supernatant was then removed, 100 μL of the test antibody was added, and the mixture was incubated at 4° C. for 1 h. The mixture was centrifuged, the supernatant was removed, the plate was washed 3 times with 200 μL of wash buffer (PBS+2% FBS), and then 100 μL of an anti-human IgG secondary antibody (Invitrogen, A-11013) labeled with Alexa Fluor 488 diluted at 1:500 was added. The mixture was incubated at 4° C. for 1 h. The plate was centrifuged, and the supernatant was removed. The plate was washed 3 times with 200 μL of wash buffer (PBS+2% FBS). The cells were resuspended in 100 μL of PBS and tested on a flow cytometer (BD FACS Calibur or BD FACS Canto_II).
(§4) Binding of the humanized anti-PVRIG antibodies to human or cynomolgus monkey PVRIG was detected by using a flow cytometer according to the method of Example 5.
(In general: Flow cytometry measures light scatter and fluorescence of single cells or particles in a stream.)

Assay [6] deals with T4, cynomolgus monkey PVRIG expressed on cells (cynomolgus monkey, UniProt A0A2K5WVV8 1-322).
T4 construct: whole, on cells; also called Monkey PVRIG FACS; cells overexpressing cynomolgus monkey PVRIG
T4 sequence: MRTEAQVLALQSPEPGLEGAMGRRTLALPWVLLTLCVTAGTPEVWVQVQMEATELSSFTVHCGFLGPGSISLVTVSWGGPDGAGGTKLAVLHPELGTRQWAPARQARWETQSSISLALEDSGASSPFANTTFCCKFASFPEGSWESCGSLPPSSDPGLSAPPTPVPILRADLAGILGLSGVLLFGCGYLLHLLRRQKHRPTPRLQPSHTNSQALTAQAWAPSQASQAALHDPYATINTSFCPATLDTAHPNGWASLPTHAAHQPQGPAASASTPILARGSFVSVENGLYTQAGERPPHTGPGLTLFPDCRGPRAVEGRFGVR
Kind of assay: FACS, HEK293 cells overexpressing target. How it is done:
as §3, §4

For assay [7], the target named is T5, his-tagged human PVRIG (h-PVRIG-his) recombinant protein (human, UniProt Q6DKI7 41-171, limits assumed).
T5 construct: bought from Acrobiosystems; also called Human PVRIG-his; human PVRIG recombinant protein; not shown: his tag
T5 sequence (looked up): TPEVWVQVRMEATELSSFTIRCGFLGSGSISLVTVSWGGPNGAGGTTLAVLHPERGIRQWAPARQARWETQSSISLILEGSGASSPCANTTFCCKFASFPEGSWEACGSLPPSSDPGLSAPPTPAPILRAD
As to the kind of experiment: BLI (Fortebio), antibody on Protein A sensor, 1:1 fit. As for the experimental part: A Protein A biosensor (Fortebio, #18-5010) was immersed in 200 μL of KB buffer (PBS, pH 7.4, 0.02% tween-20, 0.1% BSA) for 60 s for the wetting treatment. Then, the anti-PVRIG antibody was diluted to 10 μg/mL with the KB buffer, and the sensor was immersed in 200 μL of the solution until the reading was 1.2 nm. The sensor was immersed in the KB buffer for 100 s to elute excess antibody. The his-tagged human PVRIG was diluted in a 2-fold gradient to 64 nM-4 nM with the KB buffer. The sensor was immersed in the solution for 300 s for binding. The sensor was immersed in the KB buffer for 600 s for dissociation. The data were fitted in a dynamic 1:1 binding mode.
The affinity of the humanized anti-PVRIG antibodies for human PVRIG was detected according to the method of Example 7. All the antibodies listed in the Table have high affinity for human PVRIG.
In general terms: Biolayer interferometry detects binding as a change in optical thickness at a sensor tip.

In assay [8] the target is T6, human TIGIT recombinant protein (human, UniProt Q495A1 22-141, limits assumed).
T6 construct: construct not described; also called human TIGT recombinant protein
T6 sequence (looked up): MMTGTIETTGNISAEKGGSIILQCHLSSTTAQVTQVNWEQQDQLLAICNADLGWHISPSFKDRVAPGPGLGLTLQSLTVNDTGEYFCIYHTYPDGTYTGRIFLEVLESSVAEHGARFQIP
As to the kind of experiment: ELISA, coated antigen. How it is done: as §2
(§5) The experiments were carried out according to the methods of Example 4, Example 5 and Example 6 (corresponding receptors and ligands were replaced with human TIGIT and human PVR), and the results are shown in Table 27.

Assay [9] addresses T7, human TIGIT expressed on cells (human, UniProt Q495A1 22-244).
T7 construct: whole, on cells; also called cells overexpressing human TIGIT
T7 sequence (looked up): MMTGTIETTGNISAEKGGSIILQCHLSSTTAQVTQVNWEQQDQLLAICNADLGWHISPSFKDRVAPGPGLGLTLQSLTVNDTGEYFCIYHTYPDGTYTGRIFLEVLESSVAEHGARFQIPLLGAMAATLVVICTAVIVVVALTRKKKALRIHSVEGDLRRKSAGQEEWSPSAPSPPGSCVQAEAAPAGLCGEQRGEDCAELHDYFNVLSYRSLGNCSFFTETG
As to the kind of experiment: FACS, cells overexpressing target. How it is done:
as §3, §5

Assay [10] addresses T6, human TIGIT recombinant protein. Kind of assay: competition ELISA; human TIGIT, competitor human PVR. As for the experimental part:
The h-PVRIG-mIgG2a Fc protein (at a concentration of 1 μg/mL) was coated on the 96-well microplate at 100 μL per well, and incubated overnight at 4° C. The plate was washed three times with wash buffer at 250 μL per well. For each wash, the plate was shaken for 10 s to ensure adequate cleaning. A blocking solution was added at 300 μL/well, and the plate was incubated at room temperature for 1 h. The plate was washed three times with wash buffer at 250 μL per well. For each wash, the plate was shaken for 10 s to ensure adequate cleaning. 50 μL of diluted test anti-PVRIG antibody and 50 μL of his-tagged ligand PVRL2 were added to each well, and the plate was incubated at 37° C. for 1 h. The plate was washed three times with wash buffer at 250 μL per well. The HRP-labeled anti-his-tagged secondary antibody (Genscrpit) diluted at 1:2000 was added at 100 μL per well. The plate was incubated at 37° C. for 1 h. The plate was washed three times with wash buffer at 250 μL per well. TMB was added at 100 μL/well, and the plate was incubated in the dark for 15 min. 0.16 M sulfuric acid was added at 50 μL/well. OD values at 450 nm were measured using a Thermo MμtLtiSkanFc microplate reader, and the IC₅₀ values of the anti-PVRIG antibodies blocking the binding of PVRIG to PVRL2 were calculated.
as §5

B1: anti-PVRIG antibody 20 (antibody, human IgG4 S228P, F234A L235A, V domains shown)
VH: DVQLVESGGGSVQAGGSLRLSCVASRYTSRTDCMGWFRQAPGKEHEGVAHIDSDGIPRYVDSVKGRFTISQDHAKNTLYLQMNSLKPEDSATYYCVVGFKFDDDYCAPNDWGQGTQVTVSS
notes: no light chain
Consider B1, for which the binding result in [1] is listed as “no binding”. Further, the concentration giving a half-maximal response (EC50) (usually the concentration that produces a half-maximal response) in [2] amounted to 140 pM.

B2: humanized anti-PVRIG antibody 20H5 (antibody, human IgG4 S228P, F234A L235A, V domains shown)
VH: EVQLVESGGGLVQPGGSLRLSCAASGYTSRTDCMGWFRQAPGKEHEGVAHIDSDGIPRYVDSVKGRFTISQDHAKNSLYLQMNSLRAEDTAVYYCVVGFKFDEDYCAPNDWGQGTMVTVSS
B2: the “PVRIG reporter gene cell activity EC50” value in [3] stood at 42 pM. Moreover, in assay [4], the “NK92 killing of K562, killing activity (%), 4 nM antibody” value turned out to be 9.2%; the “NK92 killing of K562, killing activity (%), 20 nM antibody” value is 9.9%; the “NK92 killing of K562, killing activity (%), 100 nM antibody” value was 13.3%. Further, the EC50 in assay [5] was determined as 5 pM. Moreover, in [6], a half-maximal effect (EC50) was put at 7 pM. In assay [7], the dissociation constant (Kd) (commonly the equilibrium constant for the complex coming apart) came to 69.8 pM, the koff (usually a measure of how fast the partners let go of each other) turned out to be 1.35e-05 s⁻¹ and the kon (usually the rate constant with which the complex forms) is 193000 M⁻¹ s⁻¹.

B3: humanized anti-PVRIG antibody 30H2 (antibody, human IgG4 S228P, F234A L235A, V domains shown)
VH: EVQLVESGGGLVQPGGSLRLSCAASGFTFSGDCMGWFRQAPGKGLDEGVATIDNAGRIKYADSVKGRFTISRDNAKNSLYLQMNSLRAEDTAVYYCAAGWTFGGQCSPADWGQGTQVTVSS
Regarding B3, the “PVRIG reporter gene cell activity EC50” value in assay [3] was 176 pM. In [4], the “NK92 killing of K562, killing activity (%), 4 nM antibody” value worked out at 7.7%; the “NK92 killing of K562, killing activity (%), 20 nM antibody” value is 14.5%; the “NK92 killing of K562, killing activity (%), 100 nM antibody” value is 17.7%. Moreover, in assay [5], the EC50 was found to be 3 pM. The same molecule returned a half-maximal effective concentration (EC50) in assay [6] of 5 pM. For the same molecule, in [7], the Kd was determined as 1920 pM, the koff was 0.000325 s⁻¹ and the kon came out at 169000 M⁻¹ s⁻¹.

B4: anti-PVRIG/TIGIT bispecific antibody 1708-151-1 (bispecific antibody, human IgG4 S228P, kappa)
heavy: not shown
light: DIQMTQSPSSLSASVGDRVTITCRASENIYSYLAWYQQKPGKSPKLLIYNARTLAEGVPSRFSGSGSGTDFTLTISSLQPEDFATYYCQYHSGSPLPFGGGTKVEIKRTVAAPSVFIFPPSDEQLKSGTASVVCLLNNFYPREAKVQWKVDNALQSGNSQESVTEQDSKDSTYSLSSTLTLSKADYEKHKVYACEVTHQGLSSPVTKSFNRGEC
With B4, the EC50 in assay [8] was 101 pM; in assay [9] it was 1510 pM. The concentration for half-maximal inhibition (IC50) – broadly, the midpoint of a concentration-inhibition curve – in [10] came out at 960 pM.

B5: anti-PVRIG/TIGIT bispecific antibody 1708-151-2 (bispecific antibody, human IgG4 S228P, kappa)
heavy: not shown
light: DIQMTQSPSSLSASVGDRVTITCRASENIYSYLAWYQQKPGKSPKLLIYNARTLAEGVPSRFSGSGSGTDFTLTISSLQPEDFATYYCQYHSGSPLPFGGGTKVEIKRTVAAPSVFIFPPSDEQLKSGTASVVCLLNNFYPREAKVQWKVDNALQSGNSQESVTEQDSKDSTYSLSSTLTLSKADYEKHKVYACEVTHQGLSSPVTKSFNRGEC
B5: the 50% effective concentration (EC50) in assay [8] came to 90 pM; in assay [9] it was 1270 pM. Besides, the IC50 in assay [10] was 1040 pM.
